Legend:
[1] = target: FLAG-tagged Ser1169Cys (S2C) C-Proα2(I) (human); experiment: non-reducing SDS-PAGE immunoblot; wild-type C-Proα1(I) and S2C C-Proα2(I) co-expressed at 1:1, 2:1 and 5:1; media depleted by HA immunoprecipitation, unbound fraction FLAG-immunoprecipitated, elutions on a non-reducing SDS-PAGE gel
[2] = target: FLAG-tagged Ser1169Cys (S2C) C-Proα2(I) (human); experiment: non-reducing SDS-PAGE immunoblot; conditioned media of transfected HEK293 cells, treated with 100 mM iodoacetamide, boiled in SDS, 12% gel, non-reducing; denaturing, shows disulfide-linked species only; two-colour detection of HA and FLAG
[3] = target: FLAG-tagged Ser1169Cys (S2C) C-Proα2(I) (human); experiment: co-IP; sequential: conditioned media of co-transfected HEK293 cells, anti-FLAG beads (C-Proα2(I)), FLAG peptide elution, then HA beads (C-Proα1(I)); non-reducing, washes with 50 mM EDTA to deplete Ca^2+, 4 °C; reducing SDS-PAGE immunoblot; ratio by quantified blots
[4] = target: purified S2C (Ser1169Cys) C-Proα2(I), His tag cleaved (human); experiment: AUC; sedimentation equilibrium, 25 °C, 20 mM Bis-Tris propane pH 7, 150 mM NaCl, with 0.5 mM CaCl2; monomer to trimer
[5] = target: purified S2C (Ser1169Cys) C-Proα2(I), His tag cleaved (human); experiment: AUC; sedimentation equilibrium, 25 °C, 20 mM Bis-Tris propane pH 7, 150 mM NaCl, without Ca^2+; equilibrium constants are of monomer to dimer
[6] = target: purified wild-type C-Proα2(I), His tag cleaved (human); experiment: AUC; sedimentation equilibrium, 25 °C, 20 mM Bis-Tris propane pH 7, 150 mM NaCl, with 0.5 mM CaCl2; monomer to trimer
[7] = target: purified wild-type C-Proα2(I), His tag cleaved (human); experiment: AUC; sedimentation equilibrium, 25 °C, 20 mM Bis-Tris propane pH 7, 150 mM NaCl, without Ca^2+; equilibrium constants are of monomer to dimer
[8] = target: wild-type, FLAG-tagged C-Proα2(I) (C-propeptide domain of human Colα2(I)) (human); experiment: co-IP; sequential: conditioned media of co-transfected HEK293 cells, anti-FLAG beads (C-Proα2(I)), FLAG peptide elution, then HA beads (C-Proα1(I)); non-reducing, washes with 50 mM EDTA to deplete Ca^2+, 4 °C; reducing SDS-PAGE immunoblot; ratio by quantified blots
[9] = target: wild-type, HA-tagged C-Proα1(III) (human); experiment: non-reducing SDS-PAGE immunoblot; conditioned media of transfected HEK293 cells, treated with 100 mM iodoacetamide, boiled in SDS, 12% gel, non-reducing; denaturing, shows disulfide-linked species only; two-colour detection of HA and FLAG

Chain of wild-type, FLAG-tagged C-Proα2(I) (C-propeptide domain of human Colα2(I)) (human) (P08123 23-1366): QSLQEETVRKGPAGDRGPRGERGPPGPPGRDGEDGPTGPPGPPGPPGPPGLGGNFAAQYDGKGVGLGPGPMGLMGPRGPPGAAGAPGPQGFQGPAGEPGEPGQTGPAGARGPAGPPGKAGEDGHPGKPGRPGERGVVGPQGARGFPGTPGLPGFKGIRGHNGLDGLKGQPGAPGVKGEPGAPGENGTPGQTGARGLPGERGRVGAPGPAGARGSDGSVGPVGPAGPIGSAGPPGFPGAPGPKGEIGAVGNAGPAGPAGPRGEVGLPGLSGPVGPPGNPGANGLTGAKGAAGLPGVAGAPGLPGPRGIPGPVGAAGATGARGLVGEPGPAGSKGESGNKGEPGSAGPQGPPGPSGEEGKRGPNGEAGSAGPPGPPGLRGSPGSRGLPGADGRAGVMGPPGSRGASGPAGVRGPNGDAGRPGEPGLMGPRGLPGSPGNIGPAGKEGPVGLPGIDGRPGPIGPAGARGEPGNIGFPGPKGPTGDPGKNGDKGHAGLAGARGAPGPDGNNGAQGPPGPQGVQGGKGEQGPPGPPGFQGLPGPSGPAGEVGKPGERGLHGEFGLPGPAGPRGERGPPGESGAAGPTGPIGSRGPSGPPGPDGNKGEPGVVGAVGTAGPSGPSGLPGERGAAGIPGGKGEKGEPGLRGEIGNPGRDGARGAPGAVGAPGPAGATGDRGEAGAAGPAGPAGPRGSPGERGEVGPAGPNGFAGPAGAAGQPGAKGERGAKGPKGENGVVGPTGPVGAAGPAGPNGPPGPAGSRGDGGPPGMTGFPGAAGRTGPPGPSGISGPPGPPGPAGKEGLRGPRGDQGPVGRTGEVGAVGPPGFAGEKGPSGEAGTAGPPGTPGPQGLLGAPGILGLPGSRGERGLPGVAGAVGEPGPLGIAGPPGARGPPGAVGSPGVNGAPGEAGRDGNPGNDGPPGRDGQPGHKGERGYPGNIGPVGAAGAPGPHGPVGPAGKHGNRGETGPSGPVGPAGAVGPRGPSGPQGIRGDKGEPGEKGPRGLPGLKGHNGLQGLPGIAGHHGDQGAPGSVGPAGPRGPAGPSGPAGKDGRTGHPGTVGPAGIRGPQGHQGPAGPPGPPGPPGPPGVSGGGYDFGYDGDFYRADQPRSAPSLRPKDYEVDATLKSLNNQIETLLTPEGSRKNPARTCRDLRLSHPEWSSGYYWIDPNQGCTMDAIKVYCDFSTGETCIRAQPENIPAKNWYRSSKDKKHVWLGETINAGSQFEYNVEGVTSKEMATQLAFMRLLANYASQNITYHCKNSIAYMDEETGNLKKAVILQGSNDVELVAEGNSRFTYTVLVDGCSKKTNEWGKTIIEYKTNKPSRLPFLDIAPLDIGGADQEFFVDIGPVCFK

A stoichiometry N [1] of 3 and a stoichiometry N [2] of 3 were found for “FLAG-tagged Ser1169Cys (S2C) C-Proα2(I) (domain or fragment)” in this work.
A stoichiometry N (C-Proα1(I):C-Proα2(I)) [3] of 0.5 was found for “HA-tagged Cys1265Ser (C2S) C-Proα1(I) (from UniProt P02452 1219-1464) (domain or fragment)” in this work.
A stoichiometry N [4] of 3 and a stoichiometry N [5] of 3 were found for “purified S2C (Ser1169Cys) C-Proα2(I), His tag cleaved (domain or fragment)” in this work.
A stoichiometry N [6] of 3, a Ka [7] of 6500 M⁻¹ and a stoichiometry N [7] of 2 were found for “purified wild-type C-Proα2(I), His tag cleaved (domain or fragment)” in this work.
A stoichiometry N (C-Proα1(I):C-Proα2(I)) [3] of 2 and a stoichiometry N (C-Proα1(I):C-Proα2(I)) [8] of 2 were found for “wild-type, HA-tagged C-Proα1(I) (C-propeptide domain of human Colα1(I)) (from UniProt P02452 1219-1464) (domain or fragment)” in this work.
A stoichiometry N [9] of 3 was found for “wild-type, HA-tagged C-Proα1(III) (domain or fragment)” in this work.
